Legend:
Experiment in all cases: flow cytometry, transfected 293T cells
[1] = target: CHIKV E2-E1 envelope glycoproteins (strain S27), E2 mutant R38A (chikungunya virus strain S27) (UniProt Q8JUX5)
[2] = target: CHIKV E2-E1 envelope glycoproteins (strain S27), E2 mutant P75A (chikungunya virus strain S27) (UniProt Q8JUX5)
[3] = target: CHIKV E2-E1 envelope glycoproteins (strain S27), E2 mutant V85A (chikungunya virus strain S27) (UniProt Q8JUX5)
[4] = target: CHIKV E2-E1 envelope glycoproteins (strain S27), E2 mutant A89S (chikungunya virus strain S27) (UniProt Q8JUX5)
[5] = target: CHIKV E2-E1 envelope glycoproteins (strain S27), E2 mutant E109A (chikungunya virus strain S27) (UniProt Q8JUX5)
[6] = target: CHIKV E2-E1 envelope glycoproteins (strain S27), E2 mutant D43A (chikungunya virus strain S27) (UniProt Q8JUX5)
[7] = target: CHIKV E2-E1 envelope glycoproteins (strain S27), E2 mutant R86A (chikungunya virus strain S27) (UniProt Q8JUX5)
[8] = target: CHIKV E2-E1 envelope glycoproteins (strain S27), E2 mutant K120A (chikungunya virus strain S27) (UniProt Q8JUX5)
[9] = target: CHIKV E2-E1 envelope glycoproteins (strain S27), E2 mutant G98A (chikungunya virus strain S27) (UniProt Q8JUX5)
[10] = target: CHIKV E2-E1 envelope glycoproteins (strain S27), E2 mutant H123A (chikungunya virus strain S27) (UniProt Q8JUX5)
[11] = target: CHIKV E2-E1 envelope glycoproteins (strain S27), E2 mutant D117A (chikungunya virus strain S27) (UniProt Q8JUX5)
[12] = target: CHIKV E2-E1 envelope glycoproteins (strain S27), E2 mutant I48A (chikungunya virus strain S27) (UniProt Q8JUX5)
[13] = target: CHIKV E2-E1 envelope glycoproteins (strain S27), E2 mutant S118A (chikungunya virus strain S27) (UniProt Q8JUX5)
[14] = target: CHIKV E2-E1 envelope glycoproteins (strain S27), E2 mutant G114A (chikungunya virus strain S27) (UniProt Q8JUX5)
[15] = target: CHIKV E2-E1 envelope glycoproteins (strain S27), E2 mutant L102A (chikungunya virus strain S27) (UniProt Q8JUX5)
[16] = target: CHIKV E2-E1 envelope glycoproteins (strain S27), E2 mutant F100A (chikungunya virus strain S27) (UniProt Q8JUX5)
[17] = target: CHIKV E2-E1 envelope glycoproteins (strain S27), E2 mutant G79A (chikungunya virus strain S27) (UniProt Q8JUX5)
[18] = target: CHIKV E2-E1 envelope glycoproteins (strain S27), E2 mutant R68A (chikungunya virus strain S27) (UniProt Q8JUX5)
[19] = target: CHIKV E2-E1 envelope glycoproteins (strain S27), E2 mutant T87A (chikungunya virus strain S27) (UniProt Q8JUX5)
[20] = target: CHIKV E2-E1 envelope glycoproteins (strain S27), E2 mutant G82A (chikungunya virus strain S27) (UniProt Q8JUX5)
[21] = target: CHIKV E2-E1 envelope glycoproteins (strain S27), E2 mutant D60A (chikungunya virus strain S27) (UniProt Q8JUX5)
[22] = target: CHIKV E2-E1 envelope glycoproteins (strain S27), E2 mutant T58A (chikungunya virus strain S27) (UniProt Q8JUX5)
[23] = target: CHIKV E2-E1 envelope glycoproteins (strain S27), E2 mutant L67A (chikungunya virus strain S27) (UniProt Q8JUX5)
[24] = target: CHIKV E2-E1 envelope glycoproteins (strain S27), E2 mutant R36A (chikungunya virus strain S27) (UniProt Q8JUX5)
[25] = target: CHIKV E2-E1 envelope glycoproteins (strain S27), E2 mutant I37A (chikungunya virus strain S27) (UniProt Q8JUX5)
[26] = target: CHIKV E2-E1 envelope glycoproteins (strain S27), E2 mutant E35A (chikungunya virus strain S27) (UniProt Q8JUX5)
[27] = target: CHIKV E2-E1 envelope glycoproteins (strain S27), E2 mutant L34A (chikungunya virus strain S27) (UniProt Q8JUX5)
[28] = target: CHIKV E2-E1 envelope glycoproteins (strain S27), E2 mutant I74A (chikungunya virus strain S27) (UniProt Q8JUX5)
[29] = target: CHIKV E2-E1 envelope glycoproteins (strain S27), E2 mutant N72A (chikungunya virus strain S27) (UniProt Q8JUX5)
[30] = target: CHIKV E2-E1 envelope glycoproteins (strain S27), E2 mutant A33S (chikungunya virus strain S27) (UniProt Q8JUX5)
[31] = target: CHIKV E2-E1 envelope glycoproteins (strain S27), E2 mutant S51A (chikungunya virus strain S27) (UniProt Q8JUX5)
[32] = target: CHIKV E2-E1 envelope glycoproteins (strain S27), E2 mutant D59A (chikungunya virus strain S27) (UniProt Q8JUX5)
[33] = target: CHIKV E2-E1 envelope glycoproteins (strain S27), E2 mutant Y69A (chikungunya virus strain S27) (UniProt Q8JUX5)

| Substance | Binding Reactivity (% WT) [1] | Binding Reactivity (% WT) [2] | Binding Reactivity (% WT) [3] | Binding Reactivity (% WT) [4] | Binding Reactivity (% WT) [5] | Binding Reactivity (% WT) [6] | Binding Reactivity (% WT) [7] | Binding Reactivity (% WT) [8] | Binding Reactivity (% WT) [9] | Binding Reactivity (% WT) [10] | Binding Reactivity (% WT) [11] | Binding Reactivity (% WT) [12] | Binding Reactivity (% WT) [13] | Binding Reactivity (% WT) [14] | Binding Reactivity (% WT) [15] | Binding Reactivity (% WT) [16] | Binding Reactivity (% WT) [17] | Binding Reactivity (% WT) [18] | Binding Reactivity (% WT) [19] | Binding Reactivity (% WT) [20] | also measured |
| --- | --- | --- | --- | --- | --- | --- | --- | --- | --- | --- | --- | --- | --- | --- | --- | --- | --- | --- | --- | --- | --- |
| CHIKV mAb CHKV-88 (antibody) | 99.6 % WT | 115 % WT | 75.9 % WT | 118 % WT | 124 % WT | 37.5 % WT | 110 % WT | 82.3 % WT | 106 % WT | 61.5 % WT | 103 % WT | 39.6 % WT | 117 % WT | 65.3 % WT | 61.4 % WT | 69.1 % WT | 121 % WT | 74.7 % WT | 52.9 % WT | 91.5 % WT | Binding Reactivity (% WT) [21]: 56.5 % WT; Binding Reactivity (% WT) [22]: 81.2 % WT; Binding Reactivity (% WT) [23]: 84.6 % WT; Binding Reactivity (% WT) [24]: 83.8 % WT; Binding Reactivity (% WT) [25]: 63.2 % WT; Binding Reactivity (% WT) [26]: 55.9 % WT; Binding Reactivity (% WT) [27]: 58.3 % WT; Binding Reactivity (% WT) [28]: 106 % WT; Binding Reactivity (% WT) [29]: 109 % WT; Binding Reactivity (% WT) [30]: 123 % WT; Binding Reactivity (% WT) [31]: 96.9 % WT; Binding Reactivity (% WT) [32]: 86.1 % WT; Binding Reactivity (% WT) [33]: 95.4 % WT |
| CHIKV mAb C9 (antibody) | 86.3 % WT | 98.5 % WT | 77.8 % WT | 109 % WT | 109 % WT | 11.1 % WT | 121 % WT | 15.4 % WT | 102 % WT | 53.6 % WT | 74.4 % WT | 10.7 % WT | 97.4 % WT | 67.5 % WT | 31.2 % WT | 34.2 % WT | 81.4 % WT | 64.8 % WT | 20.7 % WT | 90.2 % WT | Binding Reactivity (% WT) [21]: 74 % WT; Binding Reactivity (% WT) [22]: 98.6 % WT; Binding Reactivity (% WT) [23]: 60.9 % WT; Binding Reactivity (% WT) [24]: 75.4 % WT; Binding Reactivity (% WT) [25]: 30.4 % WT; Binding Reactivity (% WT) [26]: 22.2 % WT; Binding Reactivity (% WT) [27]: 34.4 % WT; Binding Reactivity (% WT) [28]: 108 % WT; Binding Reactivity (% WT) [29]: 112 % WT; Binding Reactivity (% WT) [30]: 86 % WT; Binding Reactivity (% WT) [31]: 85.3 % WT; Binding Reactivity (% WT) [32]: 71.8 % WT; Binding Reactivity (% WT) [33]: 55.3 % WT |
| CHIKV mAb IM-CKV065 (antibody) | 133 % WT | 84.9 % WT | 88.1 % WT | 111 % WT | 82.6 % WT | 3.7 % WT | 102 % WT | 0.4 % WT | 112 % WT | 30.8 % WT | 70.9 % WT | 0.3 % WT | 86 % WT | 35.2 % WT | 4.7 % WT | 15.1 % WT | 98.5 % WT | 88.1 % WT | 7.6 % WT | 104 % WT | Binding Reactivity (% WT) [21]: 114 % WT; Binding Reactivity (% WT) [22]: 93.5 % WT; Binding Reactivity (% WT) [23]: 54.1 % WT; Binding Reactivity (% WT) [24]: 119 % WT; Binding Reactivity (% WT) [25]: 12.1 % WT; Binding Reactivity (% WT) [26]: 11.7 % WT; Binding Reactivity (% WT) [27]: 16.3 % WT; Binding Reactivity (% WT) [28]: 0.3 % WT; Binding Reactivity (% WT) [29]: 103 % WT; Binding Reactivity (% WT) [30]: 123 % WT; Binding Reactivity (% WT) [31]: 85.6 % WT; Binding Reactivity (% WT) [32]: 72.8 % WT; Binding Reactivity (% WT) [33]: 46.3 % WT |
| Mxra8-Fc (mouse Mxra8 extracellular domain fused to mouse IgG2b Fc) (Fc fusion) | 90.7 % WT | 86.7 % WT | 84.6 % WT | 102 % WT | 97.4 % WT | 36.2 % WT | 91.5 % WT | 1.8 % WT | 102 % WT | 33.6 % WT | -0.3 % WT | 11.1 % WT | 89.6 % WT | 79.1 % WT | 22.8 % WT | 26.2 % WT | 94.6 % WT | 66.1 % WT | 23.5 % WT | 123 % WT | Binding Reactivity (% WT) [21]: 102 % WT; Binding Reactivity (% WT) [22]: 94.1 % WT; Binding Reactivity (% WT) [23]: 77.4 % WT; Binding Reactivity (% WT) [25]: 36.2 % WT; Binding Reactivity (% WT) [26]: 11 % WT; Binding Reactivity (% WT) [27]: 28.3 % WT; Binding Reactivity (% WT) [28]: 44.8 % WT; Binding Reactivity (% WT) [29]: 128 % WT; Binding Reactivity (% WT) [30]: 85.3 % WT; Binding Reactivity (% WT) [31]: 99.2 % WT; Binding Reactivity (% WT) [32]: 78.9 % WT; Binding Reactivity (% WT) [33]: 106 % WT |
| CHIKV mAb IM-CKV063 (antibody) | 94.7 % WT | 96.4 % WT | 74.5 % WT | 84 % WT | 76.6 % WT | 8.3 % WT | 127 % WT | 13.1 % WT | 99.9 % WT | 44.2 % WT | 74.2 % WT | 7.9 % WT | 93.1 % WT | 58.4 % WT | 24.1 % WT | 33.6 % WT | 86.9 % WT | 67.1 % WT | 18.8 % WT | 91.1 % WT | Binding Reactivity (% WT) [21]: 64.8 % WT; Binding Reactivity (% WT) [22]: 88.7 % WT; Binding Reactivity (% WT) [23]: 62.1 % WT; Binding Reactivity (% WT) [24]: 76.5 % WT; Binding Reactivity (% WT) [25]: 26 % WT; Binding Reactivity (% WT) [26]: 19.1 % WT; Binding Reactivity (% WT) [27]: 29.4 % WT; Binding Reactivity (% WT) [28]: 106 % WT; Binding Reactivity (% WT) [29]: 114 % WT; Binding Reactivity (% WT) [30]: 99.4 % WT; Binding Reactivity (% WT) [31]: 89.8 % WT; Binding Reactivity (% WT) [32]: 81.1 % WT; Binding Reactivity (% WT) [33]: 60.7 % WT |

Source: patent publication US20240124553A1
